Experimental data from paper PMC6657595, “A DNA-Binding Protein Tunes Septum Placement during Bacillus subtilis Sporulation”.

Assays:
Assay in all cases: EMSA
Conditions in all cases: 150 mM KCl, 10 mM Tris-HCl pH 8.0; EMSA 10 nM DNA, 30 min, gel at room temperature; BLI 800 nM protein, 30 C
[1] = target: T1, RefZ E117D-His6 E117D (Bacillus subtilis 168) (UniProt O34970)
T1 sequence: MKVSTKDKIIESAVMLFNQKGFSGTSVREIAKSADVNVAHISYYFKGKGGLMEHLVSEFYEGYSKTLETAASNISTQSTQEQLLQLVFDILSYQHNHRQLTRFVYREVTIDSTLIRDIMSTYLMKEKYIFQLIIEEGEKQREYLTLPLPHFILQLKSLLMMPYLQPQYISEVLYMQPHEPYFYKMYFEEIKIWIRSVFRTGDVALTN

[2] = target: T2, RefZ E117G-His6 E117G (Bacillus subtilis 168) (UniProt O34970)
T2 sequence: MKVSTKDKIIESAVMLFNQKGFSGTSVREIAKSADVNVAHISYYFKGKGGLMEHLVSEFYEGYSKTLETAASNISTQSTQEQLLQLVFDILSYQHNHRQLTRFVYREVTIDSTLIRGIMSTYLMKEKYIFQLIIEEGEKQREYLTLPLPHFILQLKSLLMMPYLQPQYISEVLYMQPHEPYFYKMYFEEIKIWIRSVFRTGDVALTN

[3] = target: T3, RefZ E179K-His6 E179K (Bacillus subtilis 168) (UniProt O34970)
T3 sequence: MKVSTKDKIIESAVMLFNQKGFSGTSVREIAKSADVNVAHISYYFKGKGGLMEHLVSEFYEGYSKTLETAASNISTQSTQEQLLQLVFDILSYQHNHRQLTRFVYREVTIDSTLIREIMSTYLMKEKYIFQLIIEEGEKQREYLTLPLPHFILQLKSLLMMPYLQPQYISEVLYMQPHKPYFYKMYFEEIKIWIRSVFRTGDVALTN

[4] = target: T4, RefZ E53K-His6 E53K (Bacillus subtilis 168) (UniProt O34970)
T4 sequence: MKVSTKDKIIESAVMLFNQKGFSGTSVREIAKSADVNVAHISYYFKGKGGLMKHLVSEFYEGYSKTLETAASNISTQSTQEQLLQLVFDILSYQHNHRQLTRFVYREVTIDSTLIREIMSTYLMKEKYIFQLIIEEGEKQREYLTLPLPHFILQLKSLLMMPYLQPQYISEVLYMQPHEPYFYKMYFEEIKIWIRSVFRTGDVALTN

[5] = target: T5, RefZ E61K-His6 E61K (Bacillus subtilis 168) (UniProt O34970)
T5 sequence: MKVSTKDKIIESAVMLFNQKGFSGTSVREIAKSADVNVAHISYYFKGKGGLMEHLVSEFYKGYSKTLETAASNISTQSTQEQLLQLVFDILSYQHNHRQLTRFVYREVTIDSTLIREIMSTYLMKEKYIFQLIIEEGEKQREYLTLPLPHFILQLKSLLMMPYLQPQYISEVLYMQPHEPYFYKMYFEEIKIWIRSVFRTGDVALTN

[6] = target: T6, RefZ L153R-His6 L153R (Bacillus subtilis 168) (UniProt O34970)
T6 sequence: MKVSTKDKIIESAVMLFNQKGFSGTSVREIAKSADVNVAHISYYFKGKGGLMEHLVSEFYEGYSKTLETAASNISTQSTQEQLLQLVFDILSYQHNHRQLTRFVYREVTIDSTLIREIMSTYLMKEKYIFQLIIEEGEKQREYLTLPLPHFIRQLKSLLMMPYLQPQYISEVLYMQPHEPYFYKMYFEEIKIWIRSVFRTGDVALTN

[7] = target: T7, RefZ R102C-His6 R102C (Bacillus subtilis 168) (UniProt O34970)
T7 sequence: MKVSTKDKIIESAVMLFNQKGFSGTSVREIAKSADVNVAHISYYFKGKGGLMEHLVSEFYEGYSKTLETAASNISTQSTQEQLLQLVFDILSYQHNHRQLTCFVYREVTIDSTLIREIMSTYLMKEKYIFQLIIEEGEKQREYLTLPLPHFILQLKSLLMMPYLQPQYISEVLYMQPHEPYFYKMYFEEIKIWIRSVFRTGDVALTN

[8] = target: T8, RefZ R102S-His6 R102S (Bacillus subtilis 168) (UniProt O34970)
T8 sequence: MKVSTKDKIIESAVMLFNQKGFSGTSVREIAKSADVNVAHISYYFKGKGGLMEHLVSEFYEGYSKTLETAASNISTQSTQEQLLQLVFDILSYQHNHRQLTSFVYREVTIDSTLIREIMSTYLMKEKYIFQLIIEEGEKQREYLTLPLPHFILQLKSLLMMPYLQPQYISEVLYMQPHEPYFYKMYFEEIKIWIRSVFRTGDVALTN

[9] = target: T9, RefZ R116S-His6 R116S (Bacillus subtilis 168) (UniProt O34970)
T9 sequence: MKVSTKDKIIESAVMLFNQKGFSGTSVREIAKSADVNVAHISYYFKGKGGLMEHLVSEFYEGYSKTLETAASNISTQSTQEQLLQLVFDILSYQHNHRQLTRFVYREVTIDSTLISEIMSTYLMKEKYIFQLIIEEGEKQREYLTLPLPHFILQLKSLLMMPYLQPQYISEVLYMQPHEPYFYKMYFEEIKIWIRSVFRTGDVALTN

[10] = target: T10, RefZ R116W-His6 R116W (Bacillus subtilis 168) (UniProt O34970)
T10 sequence: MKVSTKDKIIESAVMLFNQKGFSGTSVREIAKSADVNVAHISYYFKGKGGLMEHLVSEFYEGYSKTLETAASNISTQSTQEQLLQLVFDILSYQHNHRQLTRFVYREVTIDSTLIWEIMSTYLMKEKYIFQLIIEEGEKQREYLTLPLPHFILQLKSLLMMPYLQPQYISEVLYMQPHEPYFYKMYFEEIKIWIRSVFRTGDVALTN

[11] = target: T11, RefZ-His6 (WT) (Bacillus subtilis PY79) (UniProt O34970)
T11 sequence: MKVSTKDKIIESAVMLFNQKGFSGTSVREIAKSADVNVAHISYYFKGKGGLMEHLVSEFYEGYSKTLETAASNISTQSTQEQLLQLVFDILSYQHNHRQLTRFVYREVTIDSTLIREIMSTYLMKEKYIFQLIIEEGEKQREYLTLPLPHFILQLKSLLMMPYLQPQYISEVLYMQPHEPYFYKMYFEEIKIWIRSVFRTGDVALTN

Measured: binding

ATCAGCGCTCTGGTGATTGCAAGCTGCTGCTGTTGACCGCCTTTTCGTTTTGAACAAACGTTTGATTAAAACAAATAGCCCCCTCTGTTTAGCCGGAGTCGGCCTAATACAGCGACAATCTGCCCCGGGCGAAGCTAAGGCTGTGCAAAA (double strand) [RBML1 150-bp probe]
binds more weakly: [6]
binds: all other assays above
